Test results taken from patent US20230383007A1 (BIOSION, published 2023).

Assays:
[1] = target: T1, human TROP2-his protein (human, UniProt P09758 27-274); assay: indirect ELISA, plate coated with human TROP2-his; unit taken from the x axis (Con of mAb, ng/mL)
T1 construct: also called biotin labeled human TROP2-his protein
T1 sequence: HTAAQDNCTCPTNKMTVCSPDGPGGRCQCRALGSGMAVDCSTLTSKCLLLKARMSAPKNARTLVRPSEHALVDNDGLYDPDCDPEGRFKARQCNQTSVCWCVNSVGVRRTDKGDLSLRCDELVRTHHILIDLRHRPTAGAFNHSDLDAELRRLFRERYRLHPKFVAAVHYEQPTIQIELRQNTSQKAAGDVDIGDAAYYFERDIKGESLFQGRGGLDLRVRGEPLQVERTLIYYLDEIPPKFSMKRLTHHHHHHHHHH
Method: The single domain antibodies of the disclosure were tested in the indirect ELISA for their cross-reaction with cynomolgus TROP2 protein. Briefly, 96-well micro plates were coated with 100 μl 2 μg/ml human TROP2-his protein (prepared in-house with SEQ ID NO: 16) in carbonate/bicarbonate buffer (pH 9.6) overnight at 4° C. ELISA plates were washed once with wash buffer (PBS+0.05% v/v Tween-20, PBST) and then blocked with 200 μl/well blocking buffer (5% w/v non-fatty milk in PBST) for 2 hours at 37° C. Plates were washed 4 times and incubated with 100 μl/well serially diluted anti-TROP2 antibodies of the disclosure or controls (starting at 66.7 nM, 5-fold serial dilution in 2.5% w/v non-fatty milk in PBST) for 40 minutes at 37° C. ELISA plates were washed 4 times again and incubated with Peroxidase AffiniPure F(ab′)₂ Fragment Goat Anti-Human IgG, Fey fragment specific (Jackson Immuno Research, Cat #109-036-098, 1:5000 dilution in PBST buffer, 100 μl/well) for 40 minutes at 37° C. After a final wash, plates were incubated with 100 μl/well TMB (Innoreagents) at room temperature. The reaction was stopped 3-10 minutes later at room temperature with 50 μl/well 1M H₂SO₄, and the absorbance of each well was read on a microplate reader using dual wavelength mode with 450 nm for TMB and 630 nm as the reference wavelength. The OD (450-630) values were plotted against antibody concentration. Data was analyzed using Graphpad Prism software and EC₅₀ values were reported.

[2] = target: T1, human TROP2-his protein; assay: competitive ELISA: antibody pre-mixed with biotin labeled human TROP2-his, added to plate coated with the benchmark (sacituzumab analog); unit taken from the x axis (ng/mL)
Method: The anti-TROP2 antibodies were tested for their epitope binding in a competitive ELISA assay. Briefly, 100 μl of the benchmark at 1 μg/mL in PBS was coated on 96-well micro plates for 2 hours at 37° C. ELISA plates were washed once with wash buffer (PBS+0.05% v/v Tween-20, PBST) and then blocked with 200 μl blocking buffer (5% w/v non-fatty milk in PBST) for 2 hours at 37° C. While blocking, the anti-TROP2 antibodies of the disclosure or controls were diluted with biotin labeled human TROP2-his protein (SEQ ID NO: 16, 34 ng/mL in 2.5% w/v non-fatty milk in PBST), starting at 80 nM with a 5-fold serial dilution, and incubated at room temperature for 40 minutes. After plate washing 4 times, the antibody/TROP2-his protein mixtures were added to benchmark coated plates, 100 μl per well. After incubation at 37° C. for 40 minutes, plates were washed 4 times again using wash buffer. Then the plates were added and incubated with 100 μl Peroxidase Streptavidin (1:10000 dilution in PBST buffer, Jackson Immunoresearch, Cat #016-030-084) for 40 minutes at 37° C. Plates were washed again using wash buffer. […] The absorbance of each well was read on a microplate reader using dual wavelength mode with 450 nm for TMB and 630 nm as the reference wavelength, and the OD (450-630) values were plotted against antibody concentration. Data was analyzed using Graphpad Prism software and IC₅₀ values were reported.

[3] = target: T1, human TROP2-his protein; assay: SPR Biacore T200; antibody captured on anti-human IgG CM5 chip, TROP2-his as analyte in 2-fold dilutions from 160 nM; 1:1 Langmuir fit
From the text: (§1) The purified anti-TROP2 mouse monoclonal antibodies (mAbs) were characterized for binding affinity and binding kinetics by Biacore T200 system (GE healthcare, Pittsburgh, PA, USA). Briefly, goat anti-human IgG (GE healthcare, Cat #BR100839, Human Antibody Capture Kit) was covalently linked to a CM5 chip (carboxy methyl dextran coated chip from GE healthcare #BR100530) via primary amines, using a standard amine coupling kit (GE healthcare, Pittsburgh, PA, USA) provided by Biacore. Un-reacted moieties on the chip (biosensor) surface were blocked with ethanolamine. The anti-TROP2 antibodies of the disclosure and the benchmark at the concentration of 2 μg/ml were respectively flowed onto the chip at a flow rate of 10 μL/min. Then, serially diluted human TROP2-his protein (prepared in-house with SEQ ID NO: 16), or cynomolgus TROP2-his protein (prepared in-house with SEQ ID NO: 19), 2-fold dilution in HBS-EP⁺ buffer (provided by Biacore) starting at 160 nM, were flowed onto the chip at a flow rate of 30 μL/min. The antigen-antibody association kinetics was followed for 2 minutes and the dissociation kinetics was followed for 10 minutes. The association and dissociation curves were fit to a 1:1 Langmuir binding model using BIAcore evaluation software.

[4] = target: T2, cynomolgus TROP2-his protein (cynomolgus, UniProt P09758 27-272 (human entry), limits assumed); assay: as above
T2 construct: also called Cyno TROP2-his; Cynomolgus monkey TROP2-his protein
T2 chain: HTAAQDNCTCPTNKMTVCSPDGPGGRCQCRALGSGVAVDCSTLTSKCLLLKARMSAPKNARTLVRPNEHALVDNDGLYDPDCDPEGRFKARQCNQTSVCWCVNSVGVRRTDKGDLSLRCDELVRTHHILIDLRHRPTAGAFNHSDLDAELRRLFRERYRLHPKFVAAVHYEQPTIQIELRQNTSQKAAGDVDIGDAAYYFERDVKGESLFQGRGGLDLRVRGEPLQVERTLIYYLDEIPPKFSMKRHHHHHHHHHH
From the text: as §1

[5] = target: T1, human TROP2-his protein; assay: indirect ELISA, plate coated with 1 ug/ml TROP2-his; bacterial culture supernatant
Method: (§2) ELISA plates were coated with 100 μl 1 μg/ml human TROP2-his protein (in house made with SEQ ID NO: 16), or 1 μg/ml cynomolgus TROP2-his protein (in house made with SEQ ID NO: 19) in carbonate/bicarbonate buffer (pH 9.6) overnight at 4° C., washed once with wash buffer (PBS+0.05% v/v Tween-20, PBST) and then blocked with 200 μl/well blocking buffer (5% w/v non-fatty milk in PBST) for 2 hours at 37° C. Plates were washed 4 times, and respectively incubated with 100 μl bacterial culture supernatant, and sacituzumab (used as the benchmark, also referred to as BM or BM1 hereinafter, in house made with heavy chain and light chain amino acid sequences set forth in SEQ ID NOs: 17 and 18) in 5% w/v non-fatty milk in PBST at 200 ng/ml, for 40 minutes at 37° C. The plates were washed 4 times, and incubated with THE™ HA Tag Antibody [HRP], mAb, Mouse Antibody (1:5000 dilution in PBST, GenScript, Cat #A01296, 100 μl/well, for plates with bacterial culture supernatans of the disclosure) or Peroxidase AffiniPure F(ab′)₂ Fragment Goat Anti-Human IgG, Fey fragment specific (Jackson Immunoresearch, Cat #109-036-098, for plates with the benchmark), for 40 minutes at 37° C. After a final wash, plates were incubated with 100 μl/well ELISA substrate TMB (Innoreagents, Cat #TMB-S-002) at room temperature. The reaction was stopped in 3-10 minutes with 50 μl/well 1M H₂SO₄, and the absorbance of each well was read on a microplate reader using dual wavelength mode with 450 nm for TMB and 630 nm as the reference wavelength. When the OD of a sample well was 2 times higher than the OD of the blank well, the sample can be determined as positive.

[6] = target: T2, cynomolgus TROP2-his protein; assay: as above
Method: as §2

B1: single domain antibody 01-5A (VHH)
VHH: QVQLVESGGGTVGAGGSLRLSCVVSGLPYERYCVAWFRQGPGKEREGVARILSDGTTSYSDSVKGRFTISKDNAKNTLYLQMNSLKSEDTATYYCAAEAFRPFTPSDGDCTTVLGIDYWGKGTLVTVSS
B1 gave an EC50 [1] of 0.0177 µg/mL, an IC50 [2] of 0.0417 µg/mL and a Kd [3] of 0.0975 nM. The koff [3] was 2.73e-05 s⁻¹, the kon [3] was 280000 M⁻¹ s⁻¹ and the Kd [4] was 0.647 nM. The koff [4] was 0.000172 s⁻¹, the kon [4] was 266000 M⁻¹ s⁻¹ and the “Indirect ELISA OD (450-630)” value [5] was 1.03 OD (450-630). For the same binder, the “Indirect ELISA OD (450-630)” value [6] was 0.56 OD (450-630).
